These results are taken from the supplement of paper PMC9112550, “Optimization of the antimicrobial peptide Bac7 by deep mutational scanning” (BMC Biology, 2022).
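Note: peptides expressed intracellularly from a pBAD plasmid library in pooled LB shake-flask culture, induced with 0.3% L-arabinose, DNA abundance read by NGS, three biological replicates, DESeq2 with apeglm shrinkage.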

The data set relates to Escherichia coli TOP10. The data set can be described thus: shrunken log2 fold change of peptide-encoding DNA abundance (4.5 h post-induction vs induction); higher = less antimicrobial activity (less host growth inhibition). Conditions: time post-induction: 4.5 h; library: site-saturation at positions 5, 18, 19, 20.
As to RRIRKRPPRLPRPRPRPGSLPRP, the “shrunken log2 fold change” value was -0.0469.

As to RRIRQRPPRLPRPRPRPGSQPRP, the “shrunken log2 fold change” value is -0.161.

RRIRARPPRLPRPRPRPGRDPRP: the “shrunken log2 fold change” value worked out at 0.671.

On to RRIRWRPPRLPRPRPRPNFYPRP, for which the “shrunken log2 fold change” value is -0.232.

RRIRQRPPRLPRPRPRPNNAPRP: the “shrunken log2 fold change” value was -0.216.

Take RRIRARPPRLPRPRPRPLHNPRP: the “shrunken log2 fold change” value was determined as 0.00865.

Consider RRIRIRPPRLPRPRPRPFYTPRP, for which the “shrunken log2 fold change” value is -0.324.

Consider RRIRLRPPRLPRPRPRPISAPRP, for which the “shrunken log2 fold change” value was -0.053.

In the case of RRIRCRPPRLPRPRPRPHVYPRP, the “shrunken log2 fold change” value was -0.899.

Consider RRIRDRPPRLPRPRPRPLEFPRP, for which the “shrunken log2 fold change” value is -0.158.

On to RRIRKRPPRLPRPRPRPDVAPRP, for which the “shrunken log2 fold change” value is 0.0256.

Take RRIRHRPPRLPRPRPRPQALPRP: the “shrunken log2 fold change” value was -0.278.

For RRIRGRPPRLPRPRPRPNEGPRP, the “shrunken log2 fold change” value came to 0.0414.

Regarding RRIRMRPPRLPRPRPRPIYAPRP, the “shrunken log2 fold change” value was 1.86.

In the case of RRIRTRPPRLPRPRPRPQFYPRP, the “shrunken log2 fold change” value was -0.791.

In the case of RRIRGRPPRLPRPRPRPCCQPRP, the “shrunken log2 fold change” value is 0.181.

With RRIRKRPPRLPRPRPRPDPEPRP, the “shrunken log2 fold change” value is -0.0797.

For the sequence RRIRVRPPRLPRPRPRPYAIPRP, the “shrunken log2 fold change” value was -0.033.

Turning to RRIRTRPPRLPRPRPRPGEEPRP, the “shrunken log2 fold change” value was -0.00249.

On to RRIRTRPPRLPRPRPRPQPGPRP, for which the “shrunken log2 fold change” value amounted to 0.165.

In the case of RRIRYRPPRLPRPRPRPDIFPRP, the “shrunken log2 fold change” value is -0.032.

As for RRIRMRPPRLPRPRPRPRTVPRP, the “shrunken log2 fold change” value is 0.472.

Turning to RRIRCRPPRLPRPRPRPFADPRP, the “shrunken log2 fold change” value is -0.45.

In the case of RRIRSRPPRLPRPRPRPNNNPRP, the “shrunken log2 fold change” value was -0.604.

With RRIRWRPPRLPRPRPRPRGLPRP, the “shrunken log2 fold change” value amounted to 0.698.

Take RRIRTRPPRLPRPRPRPMYLPRP: the “shrunken log2 fold change” value was -0.518.

Consider RRIRPRPPRLPRPRPRPQYCPRP, for which the “shrunken log2 fold change” value was -0.106.

Regarding RRIRNRPPRLPRPRPRPQMSPRP, the “shrunken log2 fold change” value is -0.0396.

For the sequence RRIRWRPPRLPRPRPRPDSPPRP, the “shrunken log2 fold change” value is 0.0588.

As for RRIRDRPPRLPRPRPRPPIAPRP, the “shrunken log2 fold change” value is -0.0649.

Regarding RRIRMRPPRLPRPRPRPGMAPRP, the “shrunken log2 fold change” value came out at 1.19.

Regarding RRIRARPPRLPRPRPRPKPLPRP, the “shrunken log2 fold change” value is 0.455.

For RRIRNRPPRLPRPRPRPPQPPRP, the “shrunken log2 fold change” value was found to be 0.621.

With RRIRCRPPRLPRPRPRPEFLPRP, the “shrunken log2 fold change” value was -0.091.

As for RRIRDRPPRLPRPRPRPWSRPRP, the “shrunken log2 fold change” value is -0.612.

On to RRIRWRPPRLPRPRPRPWMYPRP, for which the “shrunken log2 fold change” value is -0.02.

Consider RRIRLRPPRLPRPRPRPCCNPRP, for which the “shrunken log2 fold change” value is -0.155.

With RRIRMRPPRLPRPRPRPATHPRP, the “shrunken log2 fold change” value is -0.0207.

For RRIRFRPPRLPRPRPRPFLQPRP, the “shrunken log2 fold change” value is -0.408.

With RRIRLRPPRLPRPRPRPVDMPRP, the “shrunken log2 fold change” value is -0.375.

In the case of RRIRTRPPRLPRPRPRPTEIPRP, the “shrunken log2 fold change” value was -0.119.

As for RRIRIRPPRLPRPRPRPDLWPRP, the “shrunken log2 fold change” value is 0.078.

As to RRIRGRPPRLPRPRPRPSSTPRP, the “shrunken log2 fold change” value turned out to be 0.446.

RRIRFRPPRLPRPRPRPKLMPRP: the “shrunken log2 fold change” value came out at 0.195.

Regarding RRIRIRPPRLPRPRPRPHFWPRP, the “shrunken log2 fold change” value came out at 0.0146.

As for RRIRLRPPRLPRPRPRPGQTPRP, the “shrunken log2 fold change” value amounted to 0.277.

Turning to RRIRYRPPRLPRPRPRPLFNPRP, the “shrunken log2 fold change” value was -1.24.

Take RRIRGRPPRLPRPRPRPKQRPRP: the “shrunken log2 fold change” value was found to be 0.471.

As for RRIRYRPPRLPRPRPRPCPEPRP, the “shrunken log2 fold change” value is -0.421.

As to RRIRVRPPRLPRPRPRPPIWPRP, the “shrunken log2 fold change” value is -0.109.
